Experimental data: patent publication US20230235078A1 (University of Texas, published 2023)

Tests used:
Type I collagen = experiment: ELISA on coated type I collagen with conditioned media
[1] = target: T1, Human DDR1 extracellular domain (ECD) protein (human, UniProt Q08345 21-417); experiment: titration ELISA on human DDR1
T1 construct: it is treated here as the same molecule; also called recombinant human DDR1 ECD; huDDR1 ECD; not shown: 6xHIS-tag

[2] = target: T1, Human DDR1 extracellular domain (ECD) …; experiment: BLI (Octet 96-Red), antibody on protein A biosensors, recombinant DDR1 0.1-200 nM, 1:1 fit
Experimental: Binding affinity of anti-DDR1 monoclonal antibodies determined using Bio-layer interferometry (BLI) sensor-based Octet instrument. […] Following a short baseline in kinetics buffer, the loaded biosensors were exposed to a series of recombinant DDR1 protein at 0.1-200 nM and background subtraction was used to correct for sensor drifting. All experiments were performed with shaking at 1,000 rpm. Background wavelength shifts were measured from reference biosensors that were loaded only with antibody. Kinetic sensorgrams for each antibody are shown in FIGS. 10A-B. ForteBio's data analysis software was used to fit the data to a 1:1 binding model to extract an association rate and dissociation rate. The KD was calculated using the ratio of koff/kₒₙ and the estimated values of KD for DDR1 mAbs in Table 13.
Target sequence in this assay (Q08345 21-417): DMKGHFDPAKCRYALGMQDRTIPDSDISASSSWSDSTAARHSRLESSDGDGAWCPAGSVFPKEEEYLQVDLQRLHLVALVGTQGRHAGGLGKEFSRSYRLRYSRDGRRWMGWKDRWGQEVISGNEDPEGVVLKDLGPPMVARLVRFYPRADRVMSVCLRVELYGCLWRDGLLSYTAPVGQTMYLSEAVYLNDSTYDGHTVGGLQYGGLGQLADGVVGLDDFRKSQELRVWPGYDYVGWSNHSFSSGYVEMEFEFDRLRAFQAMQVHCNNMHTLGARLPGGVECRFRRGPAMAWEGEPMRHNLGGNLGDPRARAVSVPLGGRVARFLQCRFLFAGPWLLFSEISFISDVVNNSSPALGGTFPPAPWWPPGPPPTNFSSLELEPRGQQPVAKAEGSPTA

human DDR2 ECD = target: T2, human DDR2 ECD (human, UniProt Q16832 22-399); experiment: ELISA, DDR2 ECD coated, antibody at 1 ug/ml, HRP anti-rabbit detection
T2 construct: extracellular domain; also called DDR2 ECD protein
T2 sequence (looked up): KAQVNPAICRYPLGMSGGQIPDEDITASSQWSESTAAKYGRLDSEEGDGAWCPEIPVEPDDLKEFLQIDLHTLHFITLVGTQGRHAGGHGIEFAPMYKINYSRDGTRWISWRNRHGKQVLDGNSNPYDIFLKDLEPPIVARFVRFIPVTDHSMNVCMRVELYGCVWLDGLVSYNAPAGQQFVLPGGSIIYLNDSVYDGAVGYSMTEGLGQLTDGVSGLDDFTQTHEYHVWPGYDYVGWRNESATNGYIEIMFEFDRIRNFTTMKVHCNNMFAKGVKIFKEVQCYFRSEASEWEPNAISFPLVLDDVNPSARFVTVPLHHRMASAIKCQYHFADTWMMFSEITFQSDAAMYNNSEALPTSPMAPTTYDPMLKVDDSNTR
Experimental: FIG. 19. Determination of cross-reactivity of a panel of monoclonal antibodies to human DDR2 using ELISA method. DDR1 or DDR2 ECD protein was coated on a high binding plate and each of monoclonal antibodies at 1 ug/ml concentration was added for binding detection with HRP conjugated anti-rabbit antibody (Jackson ImmuneResearch, PA).
To determination cross-reactivity of a panel of anti-human DDR1 monoclonal antibodies to human DDR2 ECD, an ELISA method was used. DDR1 ECD or DDR2 ECD protein was coated on a high binding plate and each of monoclonal antibodies was applied at 1 ug/ml concentration and binding was detected using HRP conjugated anti-rabbit antibody (Jackson ImmuneResearch, PA). Monoclonal antibodies DDR1-3; DDR1-9; DDR1-10; DDR1-14 and DDR1-33 were specific for DDR1 epitopes, while clones DDR1-13; DDR1-15; DDR1-21; DDR1-22 and DDR1-34 appear to recognize epitopes present on both DDR1 and DDR2 ECD.

mouse DDR1 ECD = target: T3, mouse DDR1 ECD (mouse, UniProt Q03146 22-415); experiment: titration ELISA on mouse DDR1
T3 construct: extracellular domain; construct not described; also called mouse ECD
T3 sequence (looked up): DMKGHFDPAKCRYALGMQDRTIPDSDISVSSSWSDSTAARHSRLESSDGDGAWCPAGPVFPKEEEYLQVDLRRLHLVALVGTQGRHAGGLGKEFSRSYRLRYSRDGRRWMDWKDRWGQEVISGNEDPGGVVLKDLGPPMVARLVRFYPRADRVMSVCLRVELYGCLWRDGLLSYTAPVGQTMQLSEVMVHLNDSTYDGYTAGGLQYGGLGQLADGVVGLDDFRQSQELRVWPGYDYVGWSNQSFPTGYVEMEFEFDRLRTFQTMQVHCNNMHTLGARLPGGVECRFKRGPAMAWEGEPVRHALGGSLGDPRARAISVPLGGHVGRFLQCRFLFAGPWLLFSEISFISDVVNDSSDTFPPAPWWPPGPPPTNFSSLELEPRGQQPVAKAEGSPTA

[3] = target: T1, Human DDR1 extracellular domain (ECD) …; experiment: titration ELISA; target not given, human DDR1 assumed
Target sequence in this assay (Q08345 21-417): as the sequence (Q08345 21-417) above

[4] = target: DDR1 ECD fragment with deletion of DS domain (Homo sapiens (Human)) (UniProt Q08345); experiment: ELISA, ECDΔDS-His coated at 2 µg/ml, antibody titrated
[5] = target: T1, Human DDR1 extracellular domain (ECD) …; experiment: ELISA, ECD-His coated at 2 µg/ml, antibody titrated
Experimental: (§1) FIG. 18A-C. Determination of DDR1 antibody binding to ECD and DS or DSL domains using ELISA method. Recombinant DDR1 extracellular (ECD) protein and domain proteins were coated on a high binding 96-well plates at concentration at 2 μg/ml. (FIG. 18A) DDR1-9Hu antibody titration was used to determine binding curves and EC₅₀s. […] (FIG. 18C)
(§2) Antibody binding domain determination. To determine the binding of DDR1-9 (FIG. 18B) and DDR1-14 (FIG. 18C), and humanized DDR1-9hu-Abl to ECD and DS or DSL domains an ELISA method was used (FIG. 18A). Recombinant DDR1 extracellular (ECD) protein and domain deletion proteins were coated onto high binding 96-well plates at concentration at 2 ug/ml. […] Recombinantly expressed domain proteins were coated on a high-binding 96-well plate (Fisher Scientific) at concentration at 2 ug/ml. A series of antibody titrations was used to determine binding EC50. Deletion of DSL domain of DDR1 ECD impaired the bindings of both DDR1-9 and DDR1-14 antibodies. […] Fragment with DSL deletion totally abolished DDR1-9, DDR1-14, and DDR1-9Hu binding.

[6] = target: T1, Human DDR1 extracellular domain (ECD) …; experiment: ELISA, ECD protein coated at 2 ug/ml, antibody titration
Experimental: as §1, §2

[7] = target: T1, Human DDR1 extracellular domain (ECD) …; experiment: BLI (Octet); target not given, recombinant DDR1 assumed
[8] = target: DDR1 ECD fragment with deletion of DS domain (Homo sapiens (Human)) (UniProt Q08345); experiment: ELISA, domain deletion protein coated at 2 ug/ml, antibody titration

mouse DDR1 ECD T58A (from UniProt Q03146 22-415) (receptor)
percent of WT collagen binding affinity (Type I collagen): 50%

B1: DDR1-33 (antibody, V domains shown)
VH: QSVEESGGRLVTPGGSLTLTCTVSGFSLSSYDMSWVRQAPGKGLEWIGISWNSGFVDYASWAKGRFSISKTSTTVDLKITSPTTEDTATYFCARLGADDIYYFNLWGPGTLVTISS
VL: ELVMTQTPASVEAAVGGTVTIKCQASETISSRLAWYQQKPGQPPKLLIYQASKLPSGVPSRFKGTGSGTEYTLTISDLECADAATYYCQGCYYGGGSFYDSAFGGGTEVVVK
notes: Rabbit variable domains; also called anti-huDDR1 #33 antibody; DDR1-33K/DDR1-33H
EC50 (read off the curve) [1]: ~0.02 µg/mL
Kd [2]: 0.797 nM
koff [2]: 0.000493 s⁻¹
kon [2]: 619000 M⁻¹ s⁻¹
binding result (human DDR2 ECD): no binding (tested: 1 ug/ml)
EC50 (read off the curve) (mouse DDR1 ECD): ~0.02 µg/mL
EC50 [3]: 0.148 µg/mL

B2: DDR1-14 (antibody, V domains shown)
VH: QSVKESGGRLVTPGTPLTLTCTVSGIDLSYYAMSWVRQAPGKGLEYIGIINGRGDTGYATWAKGRFTISKTSTTVDLRITSPTIEDTATYFCAREDSAIPFIVGNYYGMDLWGPGTLVTVSS
VL: ELDMTQTPASVSEPVGGTVTIKCQASQSISSYLAWYQQKPGQPPKRLIFEASTLASGVPSRFSGSGSGTDFTLTISDLECADAATYYCQNNNGFSGSNFNNFGGGTEVEIK
notes: Rabbit variable domains; also called anti-huDDR1 antibody #14; DDR1-14K/DDR1-14H
Kd [2]: 0.113 nM
koff [2]: 2.27e-05 s⁻¹
kon [2]: 202000 M⁻¹ s⁻¹
binding result (human DDR2 ECD): no binding (tested: 1 ug/ml)
binding result (mouse DDR1 ECD): no binding
EC50 [3]: 0.0713 µg/mL

B3: DDR1-3 (antibody, V domains shown)
VH: QSVKESGGRLVTPGTPLTLTCTVSGIDLSSYAMSWVRQAPGKGLEWIGTINIGGGTWDATWARGRFTISRTSTTVDLKITSPTIGDTATYFCARDVDAHTLTYFTLWGPGTLVTISS
VL: ELVLTQTPASVSEPVGGTVTIKCQASQTISSWLSWYQQKPGQPPKLLIYYAFNLASGVPSRFKGSGSGTEFTLTISDLECADAATYYCQQGISSSNVDNVFGGGTEVVVK
notes: Rabbit variable domains; also called anti-huDDR1 antibody #3; DDR1-3K/DDR1-3H
EC50 (read off the curve) [1]: ~0.02 µg/mL
Kd [2]: 1.1 nM
koff [2]: 0.00191 s⁻¹
kon [2]: 1.73e+06 M⁻¹ s⁻¹
binding result (human DDR2 ECD): no binding (tested: 1 ug/ml)
binding result (mouse DDR1 ECD): no binding
EC50 [3]: 0.0598 µg/mL

B4: DDR1-9 (antibody, V domains shown)
VH: QSLEESGGRLVTPGTPLTLTCTASGFSLNRYYMLWVRQAPGEGLEWIGTISYGDTTYYASWAKGRFTISKTSTTVDLKMTSPTTEDTATYFCARADTGDNGYLGLQLWGPGTLVTVSS
VL: ELVMTQTPASVEAAVGGTVTIKCQASQSIGSVLAWYQQKPGQRPKLLISGVFDLASGVPSRFKGSGSGTEFTLTISDLECADAATYYCQYIPYGSSPFGGGTEVVVK
notes: Rabbit variable domains; also called anti-huDDR1 antibody #9; DDR1-9K/DDR1-9H
Kd [2]: 0.236 nM
koff [2]: 7.35e-05 s⁻¹
kon [2]: 311000 M⁻¹ s⁻¹
EC50 (read off the curve) [4]: 0.2 µg/mL
binding result (human DDR2 ECD): no binding (tested: 1 ug/ml)
EC50 [3]: 0.183 µg/mL
EC50 (read off the curve) [5]: ~0.2 µg/mL

B5: DDR1-9Hu-Ab1 (antibody, V domains shown)
VH: QVQLVESGGRVVQPGRSLRLSCTASGFSLNRYYMLWVRQAPGKGLEWIGTISYGDTTYYASWAKGRFTISRDNSKNTLYLQMNSLRAEDTAVYYCARADTGDNGYLGLQLWGQGTLVTVSS
VL: DIQMTQSPSSVSASVGDRVTITCQASQSIGSVLAWYQQKPGKAPKLLISGVFDLASGVPSRFSGSGSGTDFTLTISSLQPEDFATYYCQYIPYGSSPFGGGTKVEIK
notes: Humanized form of DDR1-9; also called DDR1-9hu-Abl; humanized DDR1-9hu antibody
EC50 [6]: 0.083 µg/mL
Kd [7]: 0.39 nM
koff [7]: 6.52e-05 s⁻¹
kon [7]: 165000 M⁻¹ s⁻¹
EC50 [8]: 0.168 µg/mL
